Experimental data taken from patent US7803377B2, “Anti-DLL4 antibodies and methods using same” (Genentech, Inc., priority 2006, dated 2010).

Legend:
human Delta4 (ECD5.5) = molecular target: T1, human Delta4 (ECD5.5) (Homo sapiens, UniProt Q9NR61); assay: Surface plasmon resonance (BIAcore-3000) binding affinity and kinetics; conditions: human DLL4-His; Kd calculated as koff/kon; listed as YW26.81
T1 construct: DLL4-His (C-terminal His-tagged human DLL4, amino acid 1-404); His (C)
Description: (§1) To determine the binding affinity of the anti-DLL4 Mabs, surface plasmon resonance (SRP) measurement with a BIAcore™-3000 was used (BIAcore, Inc., Piscataway, N.J.). Briefly, carboxymethylated dextran biosensor chips (CM5, BIAcore Inc.) were activated with N-ethyl-N′-(3-dimethylaminopropyl)-carbodiimide hydrochloride (EDC) and N-hydroxysuccinimide (NHS) according to the supplier's instructions. Anti-DLL4 antibody was diluted with 10 mM sodium acetate, pH 4.8, into 5 μg/ml before injection at a flow rate of 5 μl/minute to achieve approximately 500 response units (RU) of coupled antibody. Next, IM ethanolamine was injected to block unreacted groups. For kinetics measurements, two-fold serial dilutions of either human or murine DLL4-His molecules (0.7 nM to 500 nM) were injected in PBS with 0.05% Tween™ 20 at 25° C. at a flow rate of 25 μl/min. Association rates (kon) and dissociation rates (koff) were calculated using a simple one-to-one Langmuir binding model (BIAcore Evaluation Software version 3.2). The equilibrium dissociation constant (Kd) was calculated as the ratio koff/kon.

murine Delta4 (ECD5.5) = molecular target: T2, murine Delta4 (ECD5.5) (Mus musculus, UniProt Q9JI71); assay: as above; conditions: murine DLL4-His; Kd calculated as koff/kon
T2 construct: murine Delta4 (ECD5.5); His
Description: as §1

mouse DLL4 = mouse DLL4 (Mus musculus, UniProt Q9JI71); assay: ELISA binding to coated purified recombinant proteins; conditions: plates coated with recombinant protein 1 μg/ml
Description: 96-well Nunc Maxisorp plates were coated with purified recombinant proteins as indicated (1 μg/ml). […] Bound antibodies were detected with anti-human antibody HRP conjugate using TMB as substrate and OD 450 nm absorbance measurement. Anti-HER2 and recombinant ErbB2-ECD were used as assay control (FIG. 11b).

HUVECs = assay: HUVEC fibrin gel bead assay; format: cell-based, human; conditions: anti-DLL4 antibody 5 μg/ml, DBZ 0.08 μM
Description: HUVEC fibrin gel bead assay. Details of the HUVEC fibrin gel bead assay have been described (Nakatsu, M. N. et al. Microvasc Res 66, 102-12 (2003)). Briefly, Cytodex™ 3 beads (Amersham Pharmacia Biotech) were coated with 350-400 HUVECs per bead. About 200 HUVEC-coated beads were imbedded in fibrin clot in one well of 12-well tissue culture plate. 8×10^4 SF cells were plated on top of the clot. Assays were terminated between day 7 and day 9 for immunostaining and imaging. In some experiments, HUVEC sprouts were visualized by staining with Biotin-anti-CD31 (clone WM59, eBioscience) and strepavidin-Cy3. For HUVEC nuclei staining, fibrin gels were fixed overnight in 2% paraformaldehyde (PFA), and stained with 4′,6-diamidino-2-phenylindole (DAPI, Sigma). For Ki67 staining, fibrin gels were treated with 10× trypsin-EDTA for 5 min to remove the top layer SF, neutralized with 10% FBS in PBS, and fixed overnight in 4% PFA. Fibrin gels were then blocked with 10% goat serum in PBST for 4 hr, incubated overnight with rabbit anti-mouse Ki67 (Ready-To-Use, clone Sp6, LabVision), followed by secondary detection with anti-rabbit IgG-Cy3 (Jackson ImmunoResearch). All overnight incubations were done at 4° C. […]

[1] = tested on: human colon cancer HM7 cells; assay: Tumor model HM7; format: in vivo, mouse; conditions: treatment initiated at ≧250 mm^3; 10 mg/kg i.p. twice weekly; two weeks of treatment
Description: Tumor models. Beige nude female mice of 8- to 10-week-old were used. To obtain subcutaneous tumors, mice were injected with 0.1 ml cell suspension containing 50% matrigel (BD Bioscience) into the right posterior flank. 5×10^6 human colon cancer HM7 cells, 10×10^6 human colon carcinoma Colo205 cells, 10×10^6 human lung carcinoma Calu6 cells, 10×10^6 human lung carcinoma MV-522 cells, 10×10^6 mouse leukemia WEHI-3 cells, 10×10^6 mouse lymphoma EL4 cells, 10×10^6 human ovarian cancer SK-OV-3 X1 cells, 10×06 mouse lung cancer LL2 cells, 10×10^6 leukemia/lymphoma EL4 cells, or 10×10^6 non-small lung cancer H1299 cells were injected into each mouse. For human melanoma MDA-MB-435 model, mice were injected into the mammary fat pad with 0.1 ml cell (5×10^6) suspension containing 50% matrigel. […] For the following tumor models, each test mouse received a subcutaneous tumor fragment (1 mm^3) implanted in the right flank: non-small lung cancer SKMES-1, human breast cancer MX-1, human colorectal cancer SW620 and human adenocarcinoma LS174T. The tumor growth was quantitated by caliper measurements. Tumor volume (mm^3) was determined by measuring the length (l) and width (w) and calculating the volume (V=lw2/2). 10 to 15 animals were included in each group. Statistical comparison of treatment groups was performed using two-tailed Student's t-test. […]

T1 sequence (Q9NR61 27-404): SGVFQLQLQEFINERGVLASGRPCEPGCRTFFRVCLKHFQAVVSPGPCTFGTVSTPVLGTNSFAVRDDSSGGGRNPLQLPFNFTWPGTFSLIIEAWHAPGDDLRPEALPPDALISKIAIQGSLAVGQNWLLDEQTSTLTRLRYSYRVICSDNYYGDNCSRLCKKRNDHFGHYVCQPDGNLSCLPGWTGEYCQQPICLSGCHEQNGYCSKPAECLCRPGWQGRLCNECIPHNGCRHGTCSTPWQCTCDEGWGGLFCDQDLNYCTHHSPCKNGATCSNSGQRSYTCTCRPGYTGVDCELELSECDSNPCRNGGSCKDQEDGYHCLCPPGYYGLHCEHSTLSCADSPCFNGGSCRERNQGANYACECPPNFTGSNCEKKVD
Chain of mouse DLL4 (Q9JI71 27-686): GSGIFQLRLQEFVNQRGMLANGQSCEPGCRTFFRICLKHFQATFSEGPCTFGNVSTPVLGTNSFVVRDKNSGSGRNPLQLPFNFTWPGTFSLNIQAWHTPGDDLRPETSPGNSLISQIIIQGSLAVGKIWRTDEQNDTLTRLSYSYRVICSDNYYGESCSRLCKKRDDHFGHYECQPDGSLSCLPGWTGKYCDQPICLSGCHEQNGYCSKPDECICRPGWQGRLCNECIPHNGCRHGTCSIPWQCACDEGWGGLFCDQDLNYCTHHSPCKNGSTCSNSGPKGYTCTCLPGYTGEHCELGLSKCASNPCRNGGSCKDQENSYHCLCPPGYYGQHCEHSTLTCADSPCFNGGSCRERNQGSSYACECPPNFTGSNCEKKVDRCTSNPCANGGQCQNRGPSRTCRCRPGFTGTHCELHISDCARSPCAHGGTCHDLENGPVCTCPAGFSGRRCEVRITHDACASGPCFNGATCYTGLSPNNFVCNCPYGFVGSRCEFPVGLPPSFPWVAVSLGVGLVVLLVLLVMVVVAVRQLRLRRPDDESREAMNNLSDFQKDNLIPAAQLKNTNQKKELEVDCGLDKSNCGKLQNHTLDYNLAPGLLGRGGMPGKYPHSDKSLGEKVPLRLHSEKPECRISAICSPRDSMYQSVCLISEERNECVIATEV
T2 sequence (Q9JI71 27-405 limits assumed): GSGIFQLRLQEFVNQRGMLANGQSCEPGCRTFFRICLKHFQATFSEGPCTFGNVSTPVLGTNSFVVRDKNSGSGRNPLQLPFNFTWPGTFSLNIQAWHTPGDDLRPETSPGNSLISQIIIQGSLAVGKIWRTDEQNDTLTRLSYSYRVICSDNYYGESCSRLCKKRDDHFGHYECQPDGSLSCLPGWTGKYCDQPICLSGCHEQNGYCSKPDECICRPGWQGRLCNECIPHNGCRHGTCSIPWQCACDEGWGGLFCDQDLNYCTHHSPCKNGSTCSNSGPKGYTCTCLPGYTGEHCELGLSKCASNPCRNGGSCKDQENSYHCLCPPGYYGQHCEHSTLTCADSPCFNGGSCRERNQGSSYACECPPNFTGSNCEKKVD

Substance: YW26.82: affinity matured anti-DLL4 monoclonal antibody; HVR-H1/H2/H3 SEQ ID NO:1, 8, 9; HVR-L1/L2/L3 SEQ ID NO:10, 11, 18
- Kd (human Delta4 (ECD5.5)): 0.1 nM
- Kd (murine Delta4 (ECD5.5)): 0.09 nM
- binding by ELISA (mouse DLL4): bound
- HUVEC sprouting (length and number of sprouts) (HUVECs; fibrin gel with co-cultured SF cells): markedly increased the length and number of sprouts
- Ki67 staining, HUVEC proliferation (HUVECs; fibrin gel): caused hyperproliferation of HUVECs
- tumor volume [1]: remained static
